Test results: paper PMC8849478, “Scalable manufacturing platform for the production of methemoglobin as a non-oxygen carrying control material in studies of cell-free hemoglobin solutions” (PLoS ONE, 2022)

Biological target: the molecule itself
Experiment: SEC; tetramer to dimers; SEC-HPLC of samples at 1.25, 2.5, 5, 10 and 20 μM (heme basis) after incubation in 0.1 M PBS pH 7.4 at 4°C for one week; fraction of tetramers by deconvolution, Kd from the intercept of the linearised plot (Eq 3)

Row | Protein | Kd
1 | bovine methemoglobin (complex, hemoglobin alpha chain, bovine, from whole bovine blood; hemoglobin beta chain, bovine, from whole bovine blood; same chains as m1; the heme iron is oxidised to the ferric state (HbFe3+); purity 99.7 ± 0.2%; also called metbHb; bovine metHb; copies: 2 + 2) chain 1: not shown chain 2: not shown | 550 nM
2 | bovine hemoglobin (complex, hemoglobin alpha chain, bovine, from whole bovine blood; hemoglobin beta chain, bovine, from whole bovine blood; alpha2beta2 tetramer with ferrous heme (HbFe2+); in equilibrium with alpha-beta dimers; also called bHb; unmodified bHb; source: purified from bovine red blood cells (lysis, tangential flow filtration); copies: 2 + 2) chain 1: not shown chain 2: not shown | 500 nM
